Data set [1] has as its system B2 (FHV B2 1-73) (Flock House Virus). Description: BLI. To be noted: BLI (Octet RED384): 10 mM Tris pH 8.0, 100 mM NaCl, 0.1 mg/mL yeast tRNA, 0.1 mM EDTA, 0.05% Tween-20, temperature not stated. In general terms: In BLI a coated tip is dipped into the sample, and binding shifts an interference pattern.
The next data set deals with J2 anti-dsRNA antibody. Briefly: BLI. The following applies: kinetic, BLI (Octet RED384): 10 mM Tris pH 8.0, 100 mM NaCl, 0.1 mg/mL yeast tRNA, 0.1 mM EDTA, 0.05% Tween-20, temperature not stated.
The next data set has as its system K1 anti-dsRNA antibody. Description: BLI. The following applies: BLI (Octet RED384): 10 mM Tris pH 8.0, 100 mM NaCl, 0.1 mg/mL yeast tRNA, 0.1 mM EDTA, 0.05% Tween-20, temperature not stated.
The next data set concerns the target B2-Biotin (B2-Avi) (Flock House Virus, UniProt P68831 1-73). Briefly: BLI; avidity surface; lower asymptote than long dsRNA; BLI (Octet RED384): 10 mM Tris pH 8.0, 100 mM NaCl, 0.1 mg/mL yeast tRNA, 0.1 mM EDTA, 0.05% Tween-20; temperature not stated. The following applies: protein: recombinant; tags: N-terminal 6xHis; C-terminal GS linker-AviTag, biotinylated by BirA in vivo; chain copies: 2; blunt.

[2] abbreviates: U replaced by N1-methylpseudouridine.

Sequence of B2-Biotin (B2-Avi) (P68831 1-73): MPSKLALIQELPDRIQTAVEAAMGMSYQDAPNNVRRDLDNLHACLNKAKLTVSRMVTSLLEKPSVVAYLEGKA

On to 700 bp-5 moU, for which the Kd in data set [1] (U replaced by 5-methoxyuridine) was 948 nM; in the data set with J2 anti-dsRNA antibody (U replaced by 5-methoxyuridine), 131 nM. Moreover, the binding signal (fold weaker than 700 bp-U) in the data set on K1 anti-dsRNA antibody (Kd value missing in material, U replaced by 5-methoxyuridine) was found to be 4.
In the case of 700 bp-U, the Kd turned out to be 62 nM in data set [1], 27 nM with J2 anti-dsRNA antibody and 325 nM in the data set on K1 anti-dsRNA antibody.
Turning to 700 bp-m1ψ, the dissociation constant Kd in data set [1] (setting [2]) came to 669 nM; in the data set with J2 anti-dsRNA antibody (setting [2]), 56 nM.
On to 700 bp-ψ, for which the Kd in data set [1] (U replaced by pseudouridine) is 405 nM; with J2 anti-dsRNA antibody (U replaced by pseudouridine) it was 32 nM.

B1: 25 bp-U dsRNA (dsRNA)
RNA 1: CACGUACCGUUCUAGCGGGCUCUCG
RNA 2: CGAGAGCCCGCUAGAACGGUACGUG
On to B1, for which the binding result in the data set with B2-Biotin (B2-Avi) is listed as “binds”.

B2: 25 bp-m1ψ dsRNA (dsRNA)
RNA 1: CACGUACCGUUCUAGCGGGCUCUCG
RNA 2: CGAGAGCCCGCUAGAACGGUACGUG
modifications: U replaced by N1-methylpseudouridine
For B2, the binding result in the data set with B2-Biotin (B2-Avi) is listed as “binds”.

The Kd is the equilibrium constant for the complex coming apart. Low values mean higher affinity, high ones lower affinity.

(Values after article PMC11435032, “Development of Biolayer Interferometry (BLI)-Based Double-Stranded RNA Detection Method with Application in mRNA-Based Therapeutics and Vaccines”.)
